This series deals with the molecule itself. As to the kind of experiment: native gel or EMSA; BN-PAGE (Native-PAGE Novex Bis-Tris) of 1% Triton X-100 lysates of DLD20-2 cells expressing the tagged protein, no cross-linking; blot probed for GFP. For orientation: In EMSA bound probe runs differently from free probe, usually more slowly.

B1: sLUR-517GFP (domain or fragment, human, UniProt Q14160 1-517, looked up)
chain: MLKCIPLWRCNRHVESVDKRHCSLQAVPEEIYRYSRSLEELLLDANQLRELPKPFFRLLNLRKLGLSDNEIQRLPPEVANFMQLVELDVSRNDIPEIPESIKFCKALEIADFSGNPLSRLPDGFTQLRSLAHLALNDVSLQALPGDVGNLANLVTLELRENLLKSLPASLSFLVKLEQLDLGGNDLEVLPDTLGALPNLRELWLDRNQLSALPPELGNLRRLVCLDVSENRLEELPAELGGLVLLTDLLLSQNLLRRLPDGIGQLKQLSILKVDQNRLCEVTEAIGDCENLSELILTENLLMALPRSLGKLTKLTNLNVDRNHLEALPPEIGGCVALSVLSLRDNRLAVLPPELAHTTELHVLDVAGNRLQSLPFALTHLNLKALWLAENQAQPMLRFQTEDDARTGEKVLTCYLLPQQPPPSLEDAGQQGSLSETWSDAPPSRVSVIQFLEAPIGDEDAEEAAAEKRGLQRRATPHPSELKVMKRSIEGRRSEACPCQPDSGSPLPAEEEKRLSAE
notes: Scribble, LAP unique region (sLUR): LRR domain of 17 LRRs, LAPSDa and LAPSDb; the discussion calls the tag mGFP; also called full-length sLUR; source: DLD20-2 cells (LAP protein-deficient DLD1), transfected clones, in lysate
For orientation: stoichiometry N means the number of molecules, sites or subunits per partner or assembly. Regarding B1, the “stoichiometry N” value came to 2.
